In publication PMC2901902:

What was measured:
[1] = target: histone H3 acetylated at lysine 14 in C2C12 chromatin (mouse (endogenous in C2C12)) (UniProt P68433); experiment: re-ChIP
[2] = target: DPF3b PHD12 with Ala mutation of Glu315 or Asp335; experiment: ITC

Substance | fold reduction of co-occupancy (against wild type DPF3b) [1] | fold reduction in affinity (against wild type PHD12) [2]
EGFP-DPF3b D263A or F264A mutant | 2 to 3 fold | –
histone H3 peptide acetylated at lysine 14 (residues 1–18) (from UniProt P68431 2-19) | – | 80 to 250 fold
